The target in experiment [1] is NKG2D receptor on NK cells (UniProt P26718). The experiment in a line: cell-based or functional assay.
Experiment [2] has as its target T1, recombinant NKG2D-Fc chimeric protein (UniProt P26718 78-216).
T1 construct: Bought from R&D Systems; also called NKG2D-Fc protein; recombinant NKG2D-Fc chimera protein; not shown: Fc part
T1 sequence (looked up): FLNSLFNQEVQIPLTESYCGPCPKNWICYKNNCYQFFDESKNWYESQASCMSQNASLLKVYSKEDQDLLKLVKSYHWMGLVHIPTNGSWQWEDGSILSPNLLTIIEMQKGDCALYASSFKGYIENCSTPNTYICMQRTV
The experiment in a line: NKG2D-Fc staining of COS transfectants, facs and cellular immunofluorescence. As to the method: FIG. 10. A). MICA-B2 is a novel ligand for the NKG2D receptor. COS cells were transfected with cDNA for WT MICA or MICA isoforms. Forty-eight hours post-transfection cells welle incubated with recombinant NKG2D-Fc chimeric protein. […] Staining was analyzed by fluorescent microscopy and positive signal was converted into black and white picture, positive cells intercating with NKG2D-Fc are shown in black. COS cells transfected with the WT cDNA for MICA are used as positive controls. B) Visualisation of NKG2D binding on MICA-B2 isoform expression analyzed by confocal microscopy on COS-7 transfected cells using a recombinant NKG2D-Fc protein. Transfected cells were detected using an anti-Flag (M2) monoclonal antibody. NKG2D-Fc binding and Flag intracellular detection were achieved 48 h post-transfection before and after cell fixation and permeabilization, respectively. COS cells transfected with the WT cDNA for MICA are used as positive controls. Immunofluorescence staining was obtained using an FITC-labeled secondary antibody and shown in black and white, specific staining appears in white.
To functionally assess a role for the MICA isoforms in immune regulation, the possible interaction of MICA isoforms with NKG2D receptor, the natural receptor of full length MICA, was investigated by facs and by cellular immunofluorescence. […]

In the case of “soluble recombinant isoform MICA-B2 (from UniProt Q29983 24-307) (ligand)”, the NKG2D expression on NK (NKL) cells after overnight incubation with soluble protein, flow cytometry in experiment [1] was found to be 47.5%.

B1: MICA-D isoform expressed on transfected cells (ligand)
chain: EPHSLRYNLTVLSGDGSVQSGFLAEVHLDGQPFLRCDRQKCRAKPQGQWAEDVLGNKTWDRETRDLTGNGKDLRMTLAHIKDQKEGKVLVLQSHWQTFHVSAVAAAAAAAAAIFVIIIFYVCCCKKKTSAAEGPELVSLQVLDQHPVGTSDHRDATQLGFQPLMSDLGSTGSTEGA
notes: also called isoform D; not shown: C-terminal FLAG tag (three copies of FLAG in 3' from the pCMV-3Tag vector)
Regarding B1, the binding result in experiment [2] is listed as “no binding”.

B2: MICA-B1 isoform expressed in transfected cells (ligand)
chain: EPHSLRYNLTVLSGDGSVQSGFLAEVHLDGQPFLRCDRQKCRAKPQGQWAEDVLGNKTWDRETRDLTGNGKDLRMTLAHIKDQKEVLQSSDLGHERQEFLEGRCHEDQDTLSRYACRLPAGTTAISKIRRSPEENSAPHGECHPQRGLEGQHYRDMQGFWLLSLEYHTELASGWGKVLVLQSHWQTFHVSAVAAAAAAAAAIFVIIIFYVCCCKKKTSAAEGPELVSLQVLDQHPVGTSDHRDATQLGFQPLMSDLGSTGSTEGA
notes: Alpha1 domain, novel polypeptide region, TM and CYT; also called isoform B1; not shown: C-terminal FLAG tag (three copies of FLAG in 3' from the pCMV-3Tag vector)
B2: the binding result in experiment [2] was “no binding”.

For the origin of these results see patent US20160176943A1 (INSERM INSITITUT NATIONAL DE LA SANTE ET DE LA RECHERCHE …, published 2016).
